Data taken from US20240309076A1 (REGENXBIO, published 2024).

B1: NI-502.8H1 (antibody, V domains shown)
VH: EVQLVESGGGLVQPGGSLRLSCAASGFTFSIYTMSWVRQAPGKGLEWVSAILSDGSTYYADSVEGRFTISRDNSKTTLYLQMNSLTAEDTAVYYCTKRVEGSFRGWGQGTLVTVSS
VL: EIVMTQSPGTLSLSPGESATLSCRASQSVSTTYLAWYQQKPGQAPRLLIYGASSRATGIPDRFSGSGSGTDFTLTISRLEPEDFAVYYCQQYGGSRLITFGQGTRLEIK
B2: NI-502.4P3 (antibody, V domains shown)
VH: EVQLVQSGAEVKKPGESLKISCKVSGYDFSKYWIGWVRQMPGKGLEWMGLIYPGDSDTRYSPSLEGQVSISADKSISAAYLQFSSLKASDSAMYYCVRKGYSAYLGGWFDPWGQGTLVTVSS
VL: DIQLTQSPDSLAASLGERVTINCRSSQNIFYNSNNKNFLAWYQQKAGQSPKLLIYWASTRESGVPDRFSGSGSGTDFTLTISGLQAGDVAVYFCQQYFTDAPTFGGGTKVEIK

Biological target: Tau and AD-associated Tau in brain tissue and brain extracts of patients with tauopathy (AD, PSP, PiD) (human, UniProt P10636-8 2-441, limits assumed, pathologically hyperphosphorylated and aggregated; the sites are not specified)
Experiment: cell-based or functional assay

Tau and AD-associated Tau in brain tissue and brain extracts of patients with tauopathy (AD, PSP, PiD), sequence (P10636 other isoform, or with tags, fused parts or gaps limits assumed): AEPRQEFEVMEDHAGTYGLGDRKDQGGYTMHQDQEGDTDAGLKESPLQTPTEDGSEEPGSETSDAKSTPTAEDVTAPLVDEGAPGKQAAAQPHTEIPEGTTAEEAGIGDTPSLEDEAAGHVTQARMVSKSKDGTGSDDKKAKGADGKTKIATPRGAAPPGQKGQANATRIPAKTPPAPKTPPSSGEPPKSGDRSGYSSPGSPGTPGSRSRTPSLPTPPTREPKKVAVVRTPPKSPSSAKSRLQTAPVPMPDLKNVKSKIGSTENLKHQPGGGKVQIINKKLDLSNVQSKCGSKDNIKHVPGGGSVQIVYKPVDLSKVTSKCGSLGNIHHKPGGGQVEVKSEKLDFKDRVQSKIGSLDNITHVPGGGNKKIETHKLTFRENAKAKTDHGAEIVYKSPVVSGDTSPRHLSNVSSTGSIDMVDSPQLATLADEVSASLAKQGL

Binder | IC50 of Tau aggregation (integrated FRET density) in HEK293T Tau biosensor cells after immunodepletion of AD brain homogenate [µg/mL]
B1 | 7.1
B2 | 6.5
